The results in this text go back to paper PMC10808114, “Yeast 26S proteasome nuclear import is coupled to nucleus-specific degradation of the karyopherin adaptor protein Sts1” (Scientific Reports, 2024).

First the molecules themselves.
B2: Srp1-6His (natural protein, S. cerevisiae, UniProt Q02821 1-542, looked up)
chain: MDNGTDSSTSKFVPEYRRTNFKNKGRFSADELRRRRDTQQVELRKAKRDEALAKRRNFIPPTDGADSDEEDESSVSADQQFYSQLQQELPQMTQQLNSDDMQEQLSATVKFRQILSREHRPPIDVVIQAGVVPRLVEFMRENQPEMLQLEAAWALTNIASGTSAQTKVVVDADAVPLFIQLLYTGSVEVKEQAIWALGNVAGDSTDYRDYVLQCNAMEPILGLFNSNKPSLIRTATWTLSNLCRGKKPQPDWSVVSQALPTLAKLIYSMDTETLVDACWAISYLSDGPQEAIQAVIDVRIPKRLVELLSHESTLVQTPALRAVGNIVTGNDLQTQVVINAGVLPALRLLLSSPKENIKKEACWTISNITAGNTEQIQAVIDANLIPPLVKLLEVAEYKTKKEACWAISNASSGGLQRPDIIRYLVSQGCIKPLCDLLEIADNRIIEVTLDALENILKMGEADKEARGLNINENADFIEKAGGMEKIFNCQQNENDKIYEKAYKIIETYFGEEEDAVDETMAPQNAGNTFGFGSNVNQQFNFN
notes: Srp1 (Kap60, karyopherin-alpha), S. cerevisiae; pET42b-based plasmid; also called karyopherin-α; Kap60; source: also co-expressed with GST-Sts1 in E. coli extract; not shown: 6His, C-terminal, kept

In the test “Srp1-6His” the target is B2. Nature of the test: pull-down; GST-Sts1 immobilised on GSH beads, incubated with equimolar Srp1-6His and GST-cleaved Kap95, 4 °C, 2 h; PBS, 0.1% Tween-20, 0.2 mM DTT, 0.2 mM PMSF; without Ran or then with four-fold molar excess of 6His-Gsp1GDP (complex largely intact); SDS-PAGE and protein staining. To be noted: both partners purified.
The target of a further test is T1, GST-cleaved Kap95 (S. cerevisiae, UniProt Q06142 1-861).
T1 construct: Kap95 (karyopherin-beta), S. cerevisiae; also called purified Kap95; untagged Kap95; source: recombinant, purified, GST cleaved
T1 sequence (looked up): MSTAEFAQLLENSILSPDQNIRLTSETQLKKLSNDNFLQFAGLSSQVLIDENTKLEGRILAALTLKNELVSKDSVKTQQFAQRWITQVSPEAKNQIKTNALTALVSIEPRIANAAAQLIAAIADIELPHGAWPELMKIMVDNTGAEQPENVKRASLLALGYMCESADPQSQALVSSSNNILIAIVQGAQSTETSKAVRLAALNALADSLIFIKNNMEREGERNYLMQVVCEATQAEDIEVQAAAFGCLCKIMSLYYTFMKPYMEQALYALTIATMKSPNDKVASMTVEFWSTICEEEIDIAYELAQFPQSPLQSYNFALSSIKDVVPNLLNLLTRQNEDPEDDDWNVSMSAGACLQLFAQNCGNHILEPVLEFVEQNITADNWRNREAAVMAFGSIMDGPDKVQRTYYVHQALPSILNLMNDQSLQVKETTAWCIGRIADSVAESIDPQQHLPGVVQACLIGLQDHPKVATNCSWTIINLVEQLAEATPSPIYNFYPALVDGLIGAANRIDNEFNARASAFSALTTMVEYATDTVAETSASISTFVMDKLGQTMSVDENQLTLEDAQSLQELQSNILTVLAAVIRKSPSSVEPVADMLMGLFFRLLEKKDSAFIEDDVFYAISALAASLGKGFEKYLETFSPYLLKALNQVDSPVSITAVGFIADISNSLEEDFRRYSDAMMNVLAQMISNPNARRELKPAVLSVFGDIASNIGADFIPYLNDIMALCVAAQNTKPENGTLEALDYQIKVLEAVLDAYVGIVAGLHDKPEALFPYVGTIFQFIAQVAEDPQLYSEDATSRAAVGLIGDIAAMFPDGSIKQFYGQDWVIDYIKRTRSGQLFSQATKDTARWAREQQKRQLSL
The description is as above. To be noted: both partners purified.

B1: full-length GST-Sts1 (natural protein, S. cerevisiae, UniProt P38637 1-319, looked up)
chain: MMGFEWGFKPSSKITQSTVSSQGTGNVMIPTAGVKQKRRYANEEQEEEELPRNKNVMKYGGVSKRRPQPGSLIRGQPLPLQRGMELMNKNQLQQLLVDLMTKHPEIQQSVHTRVIGLDFSIQKCLDMLKQKSEAVYQSIPYNRSYESNKLDDYAFVRMKPQILEFLNCLVDFILDNIPPRLENLHASLKFLDICTELVIKLPRFELASNNYYYDKCIEQLSHVWCTLIEHVARDRIILLADNSSVWKSHMTRLQVYNEHSNGLLERPLQLFKSLDMGSPSAASSSTLSLQESIIYHHDTMTANENNNNSGSAATDSPFN
notes: Sts1, S. cerevisiae, full length; also called FL; not shown: GST, N-terminal, kept
In the case of B1, the binding result in the test with Srp1-6His and in the test with GST-cleaved Kap95 was “binds” in each case. B2: the binding result in the test with GST-cleaved Kap95 is recorded as “binds”.
